# Test results taken from US20100272750A1.
# Read-outs that look alike come from different tables or passages of the source.
# Columns and labels:
# Assay in all cases: 125I-probe competition, purified HLA
# HLA A3101 (human) = target: HLA A3101 (human)
# HLA A0301 (human) = target: HLA A0301 (human)
# HLA A1101 (human) = target: HLA A1101 (human)
# HLA A6801 (human) = target: HLA A6801 (human)
# HLA A2902 (human) = target: HLA A2902 (human)
# HLA A2402 (human) = target: HLA A2402 (human)
# HLA A2302 (human) = target: HLA A2302 (human)
# HLA A3002 (human) = target: HLA A3002 (human)
# HLA A0206 (human) = target: HLA A0206 (human)
# HLA A0201 (human) = target: HLA A0201 (human)
# HLA A6802 (human) = target: HLA A6802 (human)
# HLA A0202 (human) = target: HLA A0202 (human)
# HLA A0203 (human) = target: HLA A0203 (human)
# HLA A0101 (human) = target: HLA A0101 (human)
# HLA A2601 (human) = target: HLA A2601 (human)
# [1] = remark: other sources report otherwise
binder,measurement,setting,value
QVVPAYNISK (modifications not checked) [HPV18.E2.61],IC50,HLA A3101 (human),6660 nM
same,IC50,HLA A0301 (human),308 nM
same,IC50,HLA A1101 (human),14 nM
same,IC50,HLA A6801 (human),8 nM
YYMTDAGTW (modifications not checked) [HPV18.E2.142],IC50,HLA A2902 (human),3410 nM
same,IC50,HLA A2402 (human),3.2 nM
same,IC50,HLA A2302 (human),14 nM
same,IC50,HLA A3002 (human),2150 nM
CLYLHIQSL (modifications not checked) [HPV16.E1.259],IC50,HLA A0206 (human),100 nM
same,IC50,HLA A0201 (human),73 nM
same,IC50,HLA A6802 (human),1780 nM
same,IC50,HLA A0202 (human),45 nM
same,IC50,HLA A0203 (human),21 nM
VMDDSEIAY (modifications not checked) [HPV31.E1.349],IC50,HLA A0101 (human),18 nM
same,IC50,HLA A2902 (human),95 nM
same,IC50,HLA A3002 (human),2550 nM
KQGAMLAVFK (modifications not checked) [HPV18.E1.210],IC50,HLA A3101 (human),519 nM
same,IC50,HLA A0301 (human),35 nM
same,IC50,HLA A1101 (human),11 nM
same,IC50,HLA A6801 (human),235 nM
AFTDLTIVY (modifications not checked) [HPV31.E6.46],IC50,HLA A0101 (human),31 nM
same,IC50,HLA A2902 (human),36 nM
same,IC50,HLA A3002 (human),71 nM
RQMNMSQWIK (modifications not checked) [HPV45.E1.411],IC50,HLA A3101 (human),45 nM
same,IC50,HLA A0301 (human),15 nM
same,IC50,HLA A1101 (human),11 nM
same,IC50,HLA A6801 (human),2560 nM
VFTFPNPFPF (modifications not checked) [HPV31.E1.565],IC50,HLA A2902 (human),603 nM
same,IC50,HLA A2402 (human),17 nM
same,IC50,HLA A2302 (human),12 nM
SYFGMSFIHF (modifications not checked) [HPV18/45.E1.491],IC50,HLA A2902 (human),62 nM
same,IC50,HLA A2402 (human),17.5 nM
same,IC50,HLA A2302 (human),4.3 nM
same,IC50,HLA A3002 (human),1540 nM
KLTNKGICDL (modifications not checked) [HPV31.E6.90],IC50,HLA A0206 (human),484 nM
same,IC50,HLA A0201 (human),205 nM
same,IC50,HLA A0202 (human),440 nM
same,IC50,HLA A0203 (human),585 nM
TLEKLTNTGLY (modifications not checked) [HPV18.E6.89],IC50,HLA A2601 (human); [1],265 nM
same,IC50,HLA A3002 (human); [1],476 nM
NTGILTVTY (modifications not checked) [HPV45.E2.332],IC50,HLA A0101 (human),337 nM
same,IC50,HLA A2601 (human),3150 nM
same,IC50,HLA A2902 (human),1400 nM
same,IC50,HLA A3002 (human),8720 nM
VYDFAFRDLCI (modifications not checked) [HPV16.E6.49],IC50,HLA A2402 (human),22 nM
same,IC50,HLA A2302 (human),8.9 nM
GTGCNGWFY (modifications not checked) [HPV18/31.E1.11],IC50,HLA A0101 (human),136 nM
same,IC50,HLA A2601 (human),3080 nM
same,IC50,HLA A2902 (human),116 nM
same,IC50,HLA A3002 (human),9.1 nM
SLQDIEITCV (modifications not checked) [HPV18.E6.24],IC50,HLA A0206 (human),205 nM
same,IC50,HLA A0201 (human),153 nM
same,IC50,HLA A0202 (human),25 nM
same,IC50,HLA A0203 (human),38 nM
YYITETGIW (modifications not checked) [HPV45.E2.144],IC50,HLA A2402 (human),8.5 nM
same,IC50,HLA A2302 (human),2 nM
KSLFGMSLMK (modifications not checked) [HPV16.E1.483],IC50,HLA A3101 (human),230 nM
same,IC50,HLA A0301 (human),3.9 nM
same,IC50,HLA A1101 (human),2 nM
same,IC50,HLA A6801 (human),887 nM
MYVCCHVPL (modifications not checked) [HPV18.E5.14],IC50,HLA A2402 (human),15 nM
same,IC50,HLA A2302 (human),24 nM
same,IC50,HLA A3002 (human),4720 nM
VYQFAFKDL (modifications not checked) [HPV45.E6.44],IC50,HLA A2402 (human),4 nM
same,IC50,HLA A2302 (human),1.1 nM
same,IC50,HLA A3002 (human),165 nM
LYGVSFSEL (modifications not checked) [HPV16.E1.214],IC50,HLA A2402 (human),3.1 nM
same,IC50,HLA A2302 (human),7.2 nM
KLLEKLLCI (modifications not checked) [HPV31.E1.272],IC50,HLA A0206 (human),51 nM
same,IC50,HLA A0201 (human),19 nM
same,IC50,HLA A0202 (human),21 nM
same,IC50,HLA A0203 (human),2.4 nM
TVSATQLVK (modifications not checked) [HPV18.E2.211],IC50,HLA A3101 (human),6140 nM
same,IC50,HLA A0301 (human),7 nM
same,IC50,HLA A1101 (human),4 nM
same,IC50,HLA A6801 (human),31 nM
LSSALEIPY (modifications not checked) [HPV31.E6.15],IC50,HLA A0101 (human),35 nM
same,IC50,HLA A2601 (human),4110 nM
same,IC50,HLA A2902 (human),261 nM
same,IC50,HLA A3002 (human),175 nM
ATCVSHRGLY (modifications not checked) [HPV18.E2.154],IC50,HLA A0101 (human),421 nM
same,IC50,HLA A2601 (human),646 nM
same,IC50,HLA A2902 (human),4210 nM
same,IC50,HLA A3002 (human),28 nM
